Test results: US20260139001A1

Biological target: SARS-CoV-2 Spike RBD, B.1.1.529/Omicron (SARS-CoV-2 Omicron B.1.1.529) (UniProt P0DTC2)

Substance: Ribosomally constructed Wuhan-NS (VHH72 V104UAG construct translated with NBDxK-tRNACUA)
- normalized tube fluorescence: 0.09
